Assay results taken from patent publication US20090297501A1 (Chugai, published 2009).
Like-named read-outs stand apart in the source and are kept apart here.

T1: human Mpl (human, UniProt P40238 26-635)
T1 sequence (looked up): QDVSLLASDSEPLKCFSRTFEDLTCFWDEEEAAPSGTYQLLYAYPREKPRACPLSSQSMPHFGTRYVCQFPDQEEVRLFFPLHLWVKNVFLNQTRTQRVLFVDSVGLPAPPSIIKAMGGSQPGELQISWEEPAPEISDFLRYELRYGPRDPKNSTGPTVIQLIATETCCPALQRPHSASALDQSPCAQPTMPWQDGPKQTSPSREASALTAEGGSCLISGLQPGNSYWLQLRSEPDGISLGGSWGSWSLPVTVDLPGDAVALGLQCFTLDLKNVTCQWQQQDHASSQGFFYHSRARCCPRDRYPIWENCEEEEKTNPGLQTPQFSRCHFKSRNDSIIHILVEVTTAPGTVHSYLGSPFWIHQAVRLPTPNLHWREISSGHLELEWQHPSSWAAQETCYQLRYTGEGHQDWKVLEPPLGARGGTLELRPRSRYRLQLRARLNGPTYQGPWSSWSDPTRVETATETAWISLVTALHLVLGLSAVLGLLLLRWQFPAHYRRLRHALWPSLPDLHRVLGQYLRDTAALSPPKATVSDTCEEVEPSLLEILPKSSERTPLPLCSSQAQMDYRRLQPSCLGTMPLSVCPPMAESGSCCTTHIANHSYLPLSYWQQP


Experiments:
monkey Mpl [1] = biological target: monkey Mpl (monkey); assay: cell-based or functional assay
human Mpl [2] = biological target: T1, human Mpl; assay: cell-based or functional assay
[3] = biological target: Mpl on the BaF3 cells used in FIG. 33 (human or monkey, not stated); assay: cell-based or functional assay
monkey Mpl [4] = biological target: monkey Mpl (monkey); assay: cell-based or functional assay; remark: listed apart in the source
human Mpl [5] = biological target: T1, human Mpl; assay: cell-based or functional assay; remark: listed apart in the source
monkey Mpl [6] = biological target: monkey Mpl (monkey); assay: cell-based or functional assay; remark: listed apart in the source
human Mpl [7] = biological target: T1, human Mpl; assay: cell-based or functional assay; remark: listed apart in the source
[8] = biological target: T2, fusion protein of GST and MG10 (Gln213 to Ala231 in the amino acid sequence of human Mpl) (human, UniProt P40238 213-231); assay: Biacore 3000, MG10-GST amine-coupled on CM5, sc(Fv)2 as analyte, bivalent analyte model, n = 3
T2 construct: the parts follow the printed name MG10-GST; also called MG10-GST fusion protein; not shown: glutathione S-transferase (GST)
Protocol: The binding activities of hVB22B u2-wz4 sc(Fv)2, and peak 1 and peak 2 separated from hVB22B u2-wz4 sc(Fv)2 were evaluated as described below. Sensor Chip CM5 Biacore) was placed in Biacore 3000 (Biacore), and a fusion protein of MG10 (Gln213 to Ala231 of human Mpl) and GST described in Section 2-1 was immobilized onto the chip by the amine-coupling method. HSS-EP Buffer (Biacore) was used as the running buffer for the measurement. The flow rate was 20 μl/min. Six concentrations of each of humanized VB22B u2-wz4 sc(Fv)2 bulk, peak 1, and peak 2 within about 5 to 150 nM were prepared using HBS-EP Buffer. Each of the samples was injected over the above-described MG10-immobilized cell for 2 minutes to reveal the binding region. Then, the measurement was conducted for 2 minutes to reveal the dissociation region. VB22B sc(Fv)2 bound to the MG10-GST fusion protein was removed by injecting 20 mM HCl for 1 minute to recover the immobilized cell. The association rate constant (ka) and dissociation rate constant (kd) were calculated from the obtained sensorgram using the BIAevaluation Version 3.1 ([…]) software applying the bivalent analyte model.

| EC50 (read off the curve) (growth of BaF3-monkey Mpl cells, WST-8) [B] (monkey Mpl [1]) | EC50 (read off the curve) (growth of BaF3-human Mpl cells, WST-8) [A] (human Mpl [2]) | EC50 (read off the curve) (growth of Mpl-expressing BaF3 cells, WST-8; cell line not stated) [3] | EC50 (read off the curve) (growth of BaF3-monkey Mpl cells, WST-8) [B] (monkey Mpl [4]) | EC50 (read off the curve) (growth of BaF3-human Mpl cells, WST-8) [A] (human Mpl [5]) | EC50 (read off the curve) (growth of BaF3-monkey Mpl cells, WST-8) [B] (monkey Mpl [6]) | EC50 (read off the curve) (growth of BaF3-human Mpl cells, WST-8) [A] (human Mpl [7]) | Kd [8] | koff [8] | kon [8] | Binder |
| --- | --- | --- | --- | --- | --- | --- | --- | --- | --- | --- |
| ~0.02 nM | ~0.008 nM | ~0.6 ng/mL | – | – | – | – | – | – | – | anti-human Mpl antibody VB22B sc(Fv)2 peak 2 (single chain diabody type structural isomer) (scFv) QVQLQQSGPELVKPGASVKISCKASGYAFTNSWMNWVKQRPGKGLEWIGRIYPGDGETIYNGKFRVKATLTADKSSSTAYMDISSLTSEDSAVYFCARGYDDYSFAYWGQGTLVTVSAGGGGSGGGGSGGGGSDIVMTQAAPSIPVTPGESVSISCRSSKSLLHSNGNTYLYWFLQRPGQSPQLLIYRMSNLASGVPDRFSGSGSGTAFTLRISRVEAEDVGVYYCMQHIEYPFTFGSGTKLEIKGGGGSGGGGSGGGGSQVQLQQSGPELVKPGASVKISCKASGYAFTNSWMNWVKQRPGKGLEWIGRIYPGDGETIYNGKFRVKATLTADKSSSTAYMDISSLTSEDSAVYFCARGYDDYSFAYWGQGTLVTVSAGGGGSGGGGSGGGGSDIVMTQAAPSIPVTPGESVSISCRSSKSLLHSNGNTYLYWFLQRPGQSPQLLIYRMSNLASGVPDRFSGSGSGTAFTLRISRVEAEDVGVYYCMQHIEYPFTFGSGTKLEIK |
| – | – | – | ~0.02 nM | ~0.05 nM | ~0.03 nM | ~0.04 nM | 9.92 nM | 0.00566 s⁻¹ | 571000 M⁻¹ s⁻¹ | hVB22B u2-wz4 sc(Fv)2 peak 2 (single chain diabody type structural isomer) (scFv, also called purified u2-wz4 peak 2) QVQLVQSGPEVKKPGASVKVSCKASGYTFTNSWMNWVRQRPGKGLEWIGRIYPGDGETIYNGKFRVRVTITADESTSTAYMQLSSLRSEDTAVYYCARGYDDYSFAYWGQGTTVTVSSGGGGSGGGGSGGGGSDIVMTQSPLSLPVTPGEPASISCRSSKSLLHSNGNTYLYWFLQKPGQSPQLLIYRMSNLASGVPDRFSGSGSGTDFTLKISRVEAEDVGVYYCMQHIEYPFTFGQGTKLEIKGGGGSGGGGSGGGGSQVQLVQSGPEVKKPGASVKVSCKASGYTFTNSWMNWVRQRPGKGLEWIGRIYPGDGETIYNGKFRVRVTITADESTSTAYMQLSSLRSEDTAVYYCARGYDDYSFAYWGQGTTVTVSSGGGGSGGGGSGGGGSDIVMTQSPLSLPVTPGEPASISCRSSKSLLHSNGNTYLYWFLQKPGQSPQLLIYRMSNLASGVPDRFSGSGSGTDFTLKISRVEAEDVGVYYCMQHIEYPFTFGQGTKLEIK |

The next lines start with the binder.

| Binder | EC50 (read off the curve) (growth of BaF3-monkey Mpl cells, WST-8) [B] (monkey Mpl [1]) | EC50 (read off the curve) (growth of BaF3-human Mpl cells, WST-8) [A] (human Mpl [2]) | EC50 (read off the curve) (growth of Mpl-expressing BaF3 cells, WST-8; cell line not stated) [3] | EC50 (read off the curve) (growth of BaF3-monkey Mpl cells, WST-8) [B] (monkey Mpl [4]) | EC50 (read off the curve) (growth of BaF3-human Mpl cells, WST-8) [A] (human Mpl [5]) | EC50 (read off the curve) (growth of BaF3-monkey Mpl cells, WST-8) [B] (monkey Mpl [6]) | EC50 (read off the curve) (growth of BaF3-human Mpl cells, WST-8) [A] (human Mpl [7]) | Kd [8] | koff [8] | kon [8] |
| --- | --- | --- | --- | --- | --- | --- | --- | --- | --- | --- |
| anti-human Mpl antibody VB22B sc(Fv)2 (scFv) QVQLQQSGPELVKPGASVKISCKASGYAFTNSWMNWVKQRPGKGLEWIGRIYPGDGETIYNGKFRVKATLTADKSSSTAYMDISSLTSEDSAVYFCARGYDDYSFAYWGQGTLVTVSAGGGGSGGGGSGGGGSDIVMTQAAPSIPVTPGESVSISCRSSKSLLHSNGNTYLYWFLQRPGQSPQLLIYRMSNLASGVPDRFSGSGSGTAFTLRISRVEAEDVGVYYCMQHIEYPFTFGSGTKLEIKGGGGSGGGGSGGGGSQVQLQQSGPELVKPGASVKISCKASGYAFTNSWMNWVKQRPGKGLEWIGRIYPGDGETIYNGKFRVKATLTADKSSSTAYMDISSLTSEDSAVYFCARGYDDYSFAYWGQGTLVTVSAGGGGSGGGGSGGGGSDIVMTQAAPSIPVTPGESVSISCRSSKSLLHSNGNTYLYWFLQRPGQSPQLLIYRMSNLASGVPDRFSGSGSGTAFTLRISRVEAEDVGVYYCMQHIEYPFTFGSGTKLEIK | ~0.03 nM | ~0.01 nM | – | – | – | – | – | – | – | – |
| humanized anti-human Mpl antibody hVB22B u2-wz4 sc(Fv)2 (bulk, before separation of the structural isomers) (scFv, sc(Fv)2, a single chain VH1-linker-VL2-linker-VH3-linker-VL4, not Flag-tagged; also called humanized VB22B u2-wz4 sc(Fv)2 bulk) QVQLVQSGPEVKKPGASVKVSCKASGYTFTNSWMNWVRQRPGKGLEWIGRIYPGDGETIYNGKFRVRVTITADESTSTAYMQLSSLRSEDTAVYYCARGYDDYSFAYWGQGTTVTVSSGGGGSGGGGSGGGGSDIVMTQSPLSLPVTPGEPASISCRSSKSLLHSNGNTYLYWFLQKPGQSPQLLIYRMSNLASGVPDRFSGSGSGTDFTLKISRVEAEDVGVYYCMQHIEYPFTFGQGTKLEIKGGGGSGGGGSGGGGSQVQLVQSGPEVKKPGASVKVSCKASGYTFTNSWMNWVRQRPGKGLEWIGRIYPGDGETIYNGKFRVRVTITADESTSTAYMQLSSLRSEDTAVYYCARGYDDYSFAYWGQGTTVTVSSGGGGSGGGGSGGGGSDIVMTQSPLSLPVTPGEPASISCRSSKSLLHSNGNTYLYWFLQKPGQSPQLLIYRMSNLASGVPDRFSGSGSGTDFTLKISRVEAEDVGVYYCMQHIEYPFTFGQGTKLEIK | – | – | – | ~0.02 nM | ~0.06 nM | ~0.04 nM | ~0.04 nM | 10.2 nM | 0.00617 s⁻¹ | 608000 M⁻¹ s⁻¹ |
| hVB22B u2-wz4 sc(Fv)2 peak 1 (bivalent scFv type structural isomer) (scFv, also called purified u2-wz4 peak 1) QVQLVQSGPEVKKPGASVKVSCKASGYTFTNSWMNWVRQRPGKGLEWIGRIYPGDGETIYNGKFRVRVTITADESTSTAYMQLSSLRSEDTAVYYCARGYDDYSFAYWGQGTTVTVSSGGGGSGGGGSGGGGSDIVMTQSPLSLPVTPGEPASISCRSSKSLLHSNGNTYLYWFLQKPGQSPQLLIYRMSNLASGVPDRFSGSGSGTDFTLKISRVEAEDVGVYYCMQHIEYPFTFGQGTKLEIKGGGGSGGGGSGGGGSQVQLVQSGPEVKKPGASVKVSCKASGYTFTNSWMNWVRQRPGKGLEWIGRIYPGDGETIYNGKFRVRVTITADESTSTAYMQLSSLRSEDTAVYYCARGYDDYSFAYWGQGTTVTVSSGGGGSGGGGSGGGGSDIVMTQSPLSLPVTPGEPASISCRSSKSLLHSNGNTYLYWFLQKPGQSPQLLIYRMSNLASGVPDRFSGSGSGTDFTLKISRVEAEDVGVYYCMQHIEYPFTFGQGTKLEIK | – | – | – | – | ~0.09 nM | – | ~0.07 nM | 12.4 nM | 0.00727 s⁻¹ | 586000 M⁻¹ s⁻¹ |
| modified hVB22B u2-wz4(v3) sc(Fv)2 (scFv) QVQLVQSGPEVKKPGASVKVSCKASGYTFTNSWMNWVRERPGKGLEWIGRIYPGDGETIYNGKFRVRVTITADESTSTAYMQLSSLRSEDTAVYYCARGYDDYSFAYWGQGTTVTVSSGGGGSGGGGSGGGGSDIVMTQSPLSLPVTPGEPASISCRSSKSLLHSNGNTYLYWFLKKPGQSPQLLIYRMSNLASGVPDRFSGSGSGTDFTLKISRVEAEDVGVYYCMQHIEYPFTFGQGTKLEIKGGGGSGGGGSGGGGSQVQLVQSGPEVKKPGASVKVSCKASGYTFTNSWMNWVRKRPGKGLEWIGRIYPGDGETIYNGKFRVRVTITADESTSTAYMQLSSLRSEDTAVYYCARGYDDYSFAYWGQGTTVTVSSGGGGSGGGGSGGGGSDIVMTQSPLSLPVTPGEPASISCRSSKSLLHSNGNTYLYWFLEKPGQSPQLLIYRMSNLASGVPDRFSGSGSGTDFTLKISRVEAEDVGVYYCMQHIEYPFTFGQGTKLEIK | – | – | – | – | ~0.1 nM | – | – | – | – | – |
| modified hVB22B u2-wz4(v1) sc(Fv)2 (scFv) QVQLVQSGPEVKKPGASVKVSCKASGYTFTNSWMNWVRERPGKGLEWIGRIYPGDGETIYNGKFRVRVTITADESTSTAYMQLSSLRSEDTAVYYCARGYDDYSFAYWGQGTTVTVSSGGGGSGGGGSGGGGSDIVMTQSPLSLPVTPGEPASISCRSSKSLLHSNGNTYLYWFLEKPGQSPQLLIYRMSNLASGVPDRFSGSGSGTDFTLKISRVEAEDVGVYYCMQHIEYPFTFGQGTKLEIKGGGGSGGGGSGGGGSQVQLVQSGPEVKKPGASVKVSCKASGYTFTNSWMNWVRKRPGKGLEWIGRIYPGDGETIYNGKFRVRVTITADESTSTAYMQLSSLRSEDTAVYYCARGYDDYSFAYWGQGTTVTVSSGGGGSGGGGSGGGGSDIVMTQSPLSLPVTPGEPASISCRSSKSLLHSNGNTYLYWFLKKPGQSPQLLIYRMSNLASGVPDRFSGSGSGTDFTLKISRVEAEDVGVYYCMQHIEYPFTFGQGTKLEIK | – | – | – | ~0.04 nM | ~0.04 nM | – | – | – | – | – |
